Results from PMC7137648.

Columns and labels:
Conditions in all cases: glycan lost; control: wild-type SR-F1(20-421)
[1] = limited tryptic and chymotryptic proteolysis, SDS-PAGE
[2] = MALDI-TOF mass, SDS-PAGE, N-terminal sequencing
[3] = Ni-NTA purified yield from 293-F supernatant

B1: SR-F1 (SREC-I, SCARF1): N289Q (protein)
parent chain: MGLGLLLPLLLLWTRGTQGSELDPKGQHVCVASSPSAELQCCAGWRQKDQECTIPICEGPDACQKDEVCVKPGLCRCKPGFFGAHCSSRCPGQYWGPDCRESCPCHPHGQCEPATGACQCQADRWGARCEFPCACGPHGRCDPATGVCHCEPGWWSSTCRRPCQCNTAAARCEQATGACVCKPGWWGRRCSFRCNCHGSPCEQDSGRCACRPGWWGPECQQQCECVRGRCSAASGECTCPPGFRGARCELPCPAGSHGVQCAHSCGRCKHNEPCSPDTGSCESCEPGWNGTQCQQPCLPGTFGESCEQQCPHCRHGEACEPDTGHCQRCDPGWLGPRCEDPCPTGTFGEDCGSTCPTCVQGSCDTVTGDCVCSAGYWGPSCNASCPAGFHGNNCSVPCECPEGLCHPVSGSCQPGSGSRDTALIAGSLVPLLLLFLGLACCACCCWAPRSDLKDRPARDGATVSRMKLQVWGTLTSLGSTLPCRSLSSHKLPWVTVSHHDPEVPFNHSFIEPPSAGWATDDSFSSDPESGEADEVPAYCVPPQEGMVPVAQAGSSEASLAAGAFPPPEDASTPFAIPRTSSLARAKRPSVSFAEGTKFAPQSRRSSGELSSPLRKPKRLSRGAQSGPEGREAEESTGPEEAEAPESFPAAASPGDSATGHRRPPLGGRTVAEHVEAIEGSVQESSGPVTTIYMLAGKPRGSEGPVRSVFRHFGSFQKGQAEAKVKRAIPKPPRQALNRKKGSPGLASGSVGQSPNSAPKAGLPGATGPMAVRPEEAVRGLGAGTESSRRAQEPVSGCGSPEQDPQKQAEEERQEEPEYENVVPISRPPEP
Question: For B1, which structure_or_conformation [1] is on record?
Answer: no change

Question: What about the “other: proteolytic processing” value [2] of the same protein?
Answer: increases, extra loss of 2.3–2.6 kDa compared with the N382Q and N393Q mutants

Question: And the “expression_or_secretion, other: protein purified per 100 ml supernatant” value [3]?
Answer: decreases, 70 vs 450

B2: SR-F1 (SREC-I, SCARF1): N382Q (protein)
parent chain: MGLGLLLPLLLLWTRGTQGSELDPKGQHVCVASSPSAELQCCAGWRQKDQECTIPICEGPDACQKDEVCVKPGLCRCKPGFFGAHCSSRCPGQYWGPDCRESCPCHPHGQCEPATGACQCQADRWGARCEFPCACGPHGRCDPATGVCHCEPGWWSSTCRRPCQCNTAAARCEQATGACVCKPGWWGRRCSFRCNCHGSPCEQDSGRCACRPGWWGPECQQQCECVRGRCSAASGECTCPPGFRGARCELPCPAGSHGVQCAHSCGRCKHNEPCSPDTGSCESCEPGWNGTQCQQPCLPGTFGESCEQQCPHCRHGEACEPDTGHCQRCDPGWLGPRCEDPCPTGTFGEDCGSTCPTCVQGSCDTVTGDCVCSAGYWGPSCNASCPAGFHGNNCSVPCECPEGLCHPVSGSCQPGSGSRDTALIAGSLVPLLLLFLGLACCACCCWAPRSDLKDRPARDGATVSRMKLQVWGTLTSLGSTLPCRSLSSHKLPWVTVSHHDPEVPFNHSFIEPPSAGWATDDSFSSDPESGEADEVPAYCVPPQEGMVPVAQAGSSEASLAAGAFPPPEDASTPFAIPRTSSLARAKRPSVSFAEGTKFAPQSRRSSGELSSPLRKPKRLSRGAQSGPEGREAEESTGPEEAEAPESFPAAASPGDSATGHRRPPLGGRTVAEHVEAIEGSVQESSGPVTTIYMLAGKPRGSEGPVRSVFRHFGSFQKGQAEAKVKRAIPKPPRQALNRKKGSPGLASGSVGQSPNSAPKAGLPGATGPMAVRPEEAVRGLGAGTESSRRAQEPVSGCGSPEQDPQKQAEEERQEEPEYENVVPISRPPEP
Question: For B2, which structure_or_conformation [1] is on record?
Answer: no change

Question: What about the “expression_or_secretion, other: protein purified per 100 ml supernatant” value [3] of the same protein?
Answer: decreases, 85 vs 450

B3: SR-F1 (SREC-I, SCARF1): N393Q (protein)
parent chain: MGLGLLLPLLLLWTRGTQGSELDPKGQHVCVASSPSAELQCCAGWRQKDQECTIPICEGPDACQKDEVCVKPGLCRCKPGFFGAHCSSRCPGQYWGPDCRESCPCHPHGQCEPATGACQCQADRWGARCEFPCACGPHGRCDPATGVCHCEPGWWSSTCRRPCQCNTAAARCEQATGACVCKPGWWGRRCSFRCNCHGSPCEQDSGRCACRPGWWGPECQQQCECVRGRCSAASGECTCPPGFRGARCELPCPAGSHGVQCAHSCGRCKHNEPCSPDTGSCESCEPGWNGTQCQQPCLPGTFGESCEQQCPHCRHGEACEPDTGHCQRCDPGWLGPRCEDPCPTGTFGEDCGSTCPTCVQGSCDTVTGDCVCSAGYWGPSCNASCPAGFHGNNCSVPCECPEGLCHPVSGSCQPGSGSRDTALIAGSLVPLLLLFLGLACCACCCWAPRSDLKDRPARDGATVSRMKLQVWGTLTSLGSTLPCRSLSSHKLPWVTVSHHDPEVPFNHSFIEPPSAGWATDDSFSSDPESGEADEVPAYCVPPQEGMVPVAQAGSSEASLAAGAFPPPEDASTPFAIPRTSSLARAKRPSVSFAEGTKFAPQSRRSSGELSSPLRKPKRLSRGAQSGPEGREAEESTGPEEAEAPESFPAAASPGDSATGHRRPPLGGRTVAEHVEAIEGSVQESSGPVTTIYMLAGKPRGSEGPVRSVFRHFGSFQKGQAEAKVKRAIPKPPRQALNRKKGSPGLASGSVGQSPNSAPKAGLPGATGPMAVRPEEAVRGLGAGTESSRRAQEPVSGCGSPEQDPQKQAEEERQEEPEYENVVPISRPPEP
Question: Which results are given for B3?
Answer: structure_or_conformation [1]: no change; expression_or_secretion, other: protein purified per 100 ml supernatant [3]: decreases, 200 vs 450
